Reference: article PMC8826744 (2022)

Key:
[1] = target: T1, recombinant furin, biotinylated (UniProt P09958 27-794, biotin); assay: BLI
[2] = target: T1, recombinant furin, biotinylated; assay: BLI; remark: listed apart in the source

T1 sequence (P09958 108-715): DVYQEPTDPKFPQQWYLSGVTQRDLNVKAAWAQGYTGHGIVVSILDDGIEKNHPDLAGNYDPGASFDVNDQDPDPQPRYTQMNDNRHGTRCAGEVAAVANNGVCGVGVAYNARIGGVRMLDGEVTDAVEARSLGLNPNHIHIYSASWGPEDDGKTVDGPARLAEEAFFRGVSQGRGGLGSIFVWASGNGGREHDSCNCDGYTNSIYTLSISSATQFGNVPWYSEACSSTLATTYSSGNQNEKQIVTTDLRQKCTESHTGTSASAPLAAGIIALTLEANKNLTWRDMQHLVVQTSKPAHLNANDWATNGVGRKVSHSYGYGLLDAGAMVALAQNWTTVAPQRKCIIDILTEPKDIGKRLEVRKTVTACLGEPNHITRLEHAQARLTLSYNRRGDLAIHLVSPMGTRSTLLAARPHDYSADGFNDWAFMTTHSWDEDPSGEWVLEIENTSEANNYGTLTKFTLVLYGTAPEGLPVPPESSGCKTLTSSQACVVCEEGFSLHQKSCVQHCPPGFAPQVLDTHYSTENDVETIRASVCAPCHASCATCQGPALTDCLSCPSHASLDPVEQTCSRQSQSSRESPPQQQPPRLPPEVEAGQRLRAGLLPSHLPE

Binder	Kd [1] [nM]	koff [2] [s⁻¹]
farletuzumab-FuG1 (antibody, V domains shown) VH: EVQLVESGGGVVQPGRSLRLSCSASGFTFSGYGLSWVRQAPGKGLEWVAMISSGGSYTYYADSVKGRFAISRDNAKNTLFLQMDSLRPEDTGVYFCARHGDDPAWFAYWGQGTPVTVSS VL: DIQLTQSPSSLSASVGDRVTITCSVSSSISSNNLHWYQQKPGKAPKPWIYGTSNLASGVPSRFSGSGSGTDYTFTISSLQPEDIATYYCQQWSSYPYMYTFGQGTKVEIK	33	8.65e-05
farletuzumab-cFuG1 (antibody, V domains shown) VH: EVQLVESGGGVVQPGRSLRLSCSASGFTFSGYGLSWVRQAPGKGLEWVAMISSGGSYTYYADSVKGRFAISRDNAKNTLFLQMDSLRPEDTGVYFCARHGDDPAWFAYWGQGTPVTVSS VL: DIQLTQSPSSLSASVGDRVTITCSVSSSISSNNLHWYQQKPGKAPKPWIYGTSNLASGVPSRFSGSGSGTDYTFTISSLQPEDIATYYCQQWSSYPYMYTFGQGTKVEIK	7.5	0.000312
